Source: publication PMC9160799, “PET Imaging of Acidic Tumor Environment With ^89Zr-labeled pHLIP Probes” (Frontiers in Oncology, 2022)
Several values for one entry are separate records, joined by “and”; a condition that tells them apart may be missing. Equal values may be shown once. Entries after “also recorded” stand apart in the source; their conditions may differ. Square brackets hold non-standard residues; d marks the D form. Peptide text beside a SMILES is read from it. * marks the point of attachment. X1 = CC(=O)N(O)CCCCCNC(=O)CCC(=O)N(O)CCCCCNC(=O)CCC(=O)N(O)CCCCCNC(=O)CCC(=O)N(O)CCCCCNC(=S)Nc1ccc(NC(=S)*)cc1

Tests used:
[1] = pH-dependent insertion into lipid bilayer of POPC liposomes (Trp fluorescence and CD); format: physicochemical; settings: with Zr, pH drop 8 to 3, Henderson-Hasselbalch fit
Procedure: (§1) The interaction of the pHLIP agents with liposomes was investigated by recording the tryptophan fluorescence and circular dichroism (CD) spectra by using a PC1 spectrofluorometer (ISS, Inc) and an MOS-450 spectrometer (Biologic, Inc), respectively, with temperature control set to 25.0°C. Liposomes, consisting of large unilamellar vesicles, were prepared by extrusion. POPC (1-palmitoyl-2-oleoyl-sn-glycero-3-phosphocholine) (Avanti Polar Lipids, Inc.) in chloroform was desolvated on a rotary evaporator and dried under vacuum for several hours. The phospholipid film was rehydrated in 10 mM phosphate buffer, pH 8.0, vortexed, and passed 21 times through the extruder (50 nm membrane).
(§2) Using an excitation wavelength of 295 nm, tryptophan fluorescence spectra were recorded from 310–400 nm. CD spectra were recorded from 190–260 nm with 1-nm steps. The concentration of the peptide and the POPC liposomes varied in different experiments: 5–15 μM of pHLIP agents and 1 mM of POPC liposomes.
(§3) The pH-dependent insertion of the peptides into the lipid bilayer of the POPC liposomes was studied by monitoring either the changes in tryptophan fluorescence spectra or changes in the molar ellipticity at 222 nm as a function of the pH value. After the addition of aliquots of HCl, the pH values of the solutions containing peptide and POPC liposomes were measured using an Orion PerHecT ROSS Combination pH Micro Electrode and an Orion Dual Star pH and ISE Benchtop Meter. Fluorescence spectra were analyzed using the Protein Fluorescence and Structural Tool Kit (PFAST) ([41]) to determine the positions of spectral maxima (λ max ). The λ max and millidegree data were normalized to 0–1 and were plotted as a function of pH. The pH-dependence was fit with the Henderson-Hasselbach equation to determine the cooperativity (n) and the mid-point (pK) of transition:
Normalized pH dependence=1/1+10^n(pH−pK)

[2] = Tryptophan fluorescence spectra of pHLIP agents in states I, II, III; format: physicochemical; settings: for λmax of tryptophan fluorescence, state I: in solution; for λmax of tryptophan fluorescence, state I / λmax of tryptophan fluorescence, state II: pH 8, 25.0°C; for λmax of tryptophan fluorescence, state III / λmax of tryptophan fluorescence, state II: with POPC liposomes; for λmax of tryptophan fluorescence, state III: pH 4, 25.0°C
Procedure: as §1, §2
as §3, with “transition: […]” for “transition:”

[3] = system: kidney uptake of [89Zr]Zr-DFOsqa-Lys-Var3; assay: Kidney-blocking study (PET imaging); format: in vivo, healthy female SCID mice; settings: drug IV 30 min before 7.4 MBq [89Zr]Zr-DFOsqa-Lys-Var3 (1.2 nmol); two doses per drug, n=2 each; PET 24 h p.i. vs control mice
Procedure: The imaging and biodistribution studies were performed with male (RM-1 model) and female (4T1 model) athymic nude mice and the kidney-blocking experiments were performed with female SCID mice received from Charles River Laboratories (Stone Ridge, NY). After arrival, the mice were kept in the MSK vivarium for one week before any experimental handling was performed. The animals were allowed free access to water and food, and all animal care and experimental procedures were approved by the Institutional Animal Care and Use Committee (IACUC). For the subcutaneous allografts, a 1-to-1 ratio of Corning Matrigel Matrix and the cell solution was prepared and stored on ice for the injections. Each mouse received a subcutaneous injection of 100 µL (50 µL cell solution, viability > 90%, + 50 µL Matrigel) into the flank on the level of the right shoulder. The injections were performed under anesthesia (2% isoflurane, Baxter Healthcare, Deerfield, IL, USA). Palpable tumors of similar size (100–300 mm^3) developed 5–8 days after grafting.
PET images were obtained at the respective timepoints with the mice under anesthesia (2% isoflurane) on a microPET Focus 120 (Concorde Microsystems) or an Inveon PET-CT (Siemens) rodent scanner. All images were analyzed using the Medical Imaging Data Examiner Amide (version 0.9.0) or the Inveon reconstruction software suite. The counting rates in the reconstructed images were converted to percent of injected dose per weight (%ID/g) by applying a system-specific calibration factor. At the final timepoint, the remaining mice were euthanized (by CO2 asphyxiation, followed by cervical dislocation) and their tumors were resected for histological analysis.
Additional experiments were performed to investigate the influence of various kidney-uptake blockers and diuretics. Healthy female SCID mice received a “blocking agent” 30 minutes prior to the injection of [^89Zr]Zr-DFOsqa-Lys-Var3 (7.4 MBq/200 µCi, 1.2 nmol). […] The experimental set-up can be found in Table S6 .
Table S6. Summary of the kidney-blocking study. Healthy female SCID mice (2 mice per experiment/ dosage + 2 control mice without treatment, total of 22 mice) received a blocking agent intravenously 30 minutes prior to the injection of 7.4 MBq/200 µCi [89Zr]Zr-DFOsqa-Lys-Var3 (1.2 nmol pHLIP).
The drug dose was calculated as weight of drug (mg) per weight of mouse (kg). A potential kidney […]
calibrated images to the control mice (24 hours post injection). No drug led to a significant reduction […]
drug (IV 30 min before dose [mg/kg] effect on kidney mechanism of action [89Zr]Zr-pHLIP) (n=2) uptake […]
and water from the body; acts as a diuretic […]
organic anion transporter; blocks the uptake of organic anions […]
tubule via inhibition of the Na/Cl symporter; acts as a diuretic […]
increased – serum levels decreased

[4] = change of Trp fluorescence maximum

CC(=O)N[C@H](C)C(=O)N[C@H](CCCCNC(=S)Nc1ccc(NC(=S)NCCCCCN(O)C(=O)CCC(=O)NCCCCCN(O)C(=O)CCC(=O)NCCCCCN(O)C(=O)CCC(=O)NCCCCCN(O)C(C)=O)cc1)C(=O)N[C@H](CC(=O)O)C(=O)N[C@H](CC(=O)O)C(=O)N[C@H](CCC(N)=O)C(=O)N[C@H](CC(N)=O)C(=O)N1CCC[C@@H]1C(=O)N[C@H](Cc1c[nH]c2ccccc12)C(=O)N[C@H](CCCNC(=N)N)C(=O)N[C@H](C)C(=O)N[C@H](Cc1ccc(O)cc1)C(=O)N[C@H](CC(C)C)C(=O)N[C@H](CC(=O)O)C(=O)N[C@H](CC(C)C)C(=O)N[C@H](CC(C)C)C(=O)N[C@H](Cc1ccccc1)C(=O)N1CCC[C@@H]1C(=O)N[C@@H](C(=O)N[C@H](CC(=O)O)C(=O)N[C@@H](C(=O)N[C@H](CC(C)C)C(=O)N[C@H](CC(C)C)C(=O)N[C@H](CC(C)C)C(=O)N[C@H](CC(=O)O)C(=O)N[C@H](CC(C)C)C(=O)N[C@H](CC(C)C)C(=O)N[C@H](Cc1c[nH]c2ccccc12)C(=O)N[C@H](C)C(=O)O)[C@H](C)O)[C@H](C)O (89Zr complex, metal not drawn) [DFO*-Lys-Var3] (Ac-[dA][dK](X1)[dD][dD][dQ][dN][dP][dW][dR][dA][dY][dL][dD][dL][dL][dF][dP][dT][dD][dT][dL][dL][dL][dD][dL][dL][dW][dA]-OH; C-terminus assumed)
cooperativity (n), Fluor. [1, 4]: 0.79 and 0.8
midpoint of transition (pK), Fluor. [1, 4]: 5.87
cooperativity (n), CD ([1]; ellipticity at 222 nm (coil-helix transition)): 1.46
midpoint of transition (pK), CD ([1]; ellipticity at 222 nm): 5.47
λmax of tryptophan fluorescence, state I ([2]; with Zr, excitation 295 nm): 352.0 nm
λmax of tryptophan fluorescence, state III ([2]; with Zr): 341.4 nm
λmax of tryptophan fluorescence, state II ([2]; with Zr): 348.2 nm
λmax of tryptophan fluorescence, state I ([2]; without Zr): 351.9 nm
λmax of tryptophan fluorescence, state III ([2]; without Zr): 341.4 nm
λmax of tryptophan fluorescence, state II ([2]; without Zr): 349.3 nm

CCCN(CCC)S(=O)(=O)c1ccc(C(=O)O)cc1 [probenecid]
effect on kidney uptake [3]: not significant; also recorded: none of these drugs led to a significant reduction of kidney uptake

CC(=O)Nc1nnc(S(N)(=O)=O)s1 [acetazolamide]
effect on kidney uptake [3]: not significant; also recorded: none of these drugs led to a significant reduction of kidney uptake

CN(C)c1nc(N)c(C(=O)NC(=N)N)nc1Cl [5-(N,N-dimethyl)amiloride]
effect on kidney uptake [3]: not significant; also recorded: none of these drugs led to a significant reduction of kidney uptake
